# In patent publication EP4541814A1 (Cytiva BioProcess R&D AB, dated 2025):
# Residue numbers refer to the chain shown, from its start.
# B1: vh257 (SEQ ID NO:101) (VHH)
# VHH: QVQLQQSGGGSVQAGGSLRLSCTISGRTLSDYTMGWFRQTPGKEREFVAAISWSGAYTKYADSVKGRFTISRDNAKNTVYLQMNSLKPEDTAVYYCAAGPTGLLSKKATPADYDYWGQGTQVTVSS
# B2: vh258 (SEQ ID NO:102) (VHH)
# VHH: B1 VHH with T40I
# B3: vh341 (SEQ ID NO:103) (VHH)
# VHH: B1 VHH with T40K
# B4: Nb276 (SEQ ID NO:128) (VHH)
# VHH: B1 VHH with T40R, Y80L
# B5: vh278 (SEQ ID NO:130) (VHH)
# VHH: B1 VHH with T40R, Y80A
# B6: vh328 (SEQ ID NO:119) (VHH)
# VHH: B1 VHH with T40R, A61Q
# B7: vh282 (SEQ ID NO:135) (VHH)
# VHH: B1 VHH with T40R, S85Q
# B8: vh279 (SEQ ID NO:131) (VHH)
# VHH: B1 VHH with T40R, Y80F
# B9: vh269 (SEQ ID NO:120) (VHH)
# VHH: B1 VHH with T40R, A61T
# B10: vh281 (SEQ ID NO:134) (VHH)
# VHH: B1 VHH with T40R, S85T
# B11: vh286 (SEQ ID NO:139) (VHH)
# VHH: B1 VHH with T40R, V93I
# B12: vh275 (SEQ ID NO:126) (VHH)
# VHH: B1 VHH with T40R, N77Q
# B13: Nb329 (SEQ ID NO:127) (VHH)
# VHH: B1 VHH with T40R, N77D
# B14: vh270 (SEQ ID NO:121) (VHH)
# VHH: B1 VHH with T40R, A61S
# B15: Nb273 (SEQ ID NO:124) (VHH)
# VHH: B1 VHH with T40R, N77S
# B16: Nb274 (SEQ ID NO:125) (VHH)
# VHH: B1 VHH with T40R, N77E
# B17: vh327 (SEQ ID NO:118) (VHH)
# VHH: B1 VHH with T40R, A61N
# B18: vh331 (SEQ ID NO:140) (VHH)
# VHH: B1 VHH with T40R, V93L
# B19: vh271 (SEQ ID NO:122) (VHH)
# VHH: B1 VHH with T40R, A61V
# B20: Nb277 (SEQ ID NO:129) (VHH)
# VHH: B1 VHH with T40R, Y80V
# B21: vh284 (SEQ ID NO:137) (VHH)
# VHH: B1 VHH with T40R, V93A
# B22: vh330 (SEQ ID NO:132) (VHH)
# VHH: B1 VHH with T40R, Y80W
# B23: vh280 (SEQ ID NO:133) (VHH)
# VHH: B1 VHH with T40R, S85N
# Target: T1, AAV9 viral particles (adeno-associated virus 9)
# Experiment: SPR (Biacore), polypeptide amine-coupled to CM5, AAV9 analyte; response normalized to SEQ ID NO:80
row,Binder,Normalized AAV9 binding capacity (%)
1,B1,69%
2,B2,87%
3,B3,83%

# Target: T1, AAV9 viral particles
# Experiment: as above
# Remark: another data set of the same source
row,Binder,Normalized AAV9 binding capacity (%)
1,B4,92%
2,B5,99%
3,B6,110%
4,B7,88%
5,B8,98%
6,B9,85%
7,B10,103%
8,B11,112%
9,B12,94%
10,B13,111%
11,B14,103%
12,B15,82%
13,B16,91%
14,B17,109%
15,B18,109%
16,B19,105%
17,B20,80%
18,B21,109%
19,B22,112%
20,B23,100%
